This experiment deals with Envy. The experiment in a line: SEC; gel filtration on a Superdex 200 column; 100 μL of 10 μM purified protein loaded, flow rate 0.5 ml/min, elution monitored by absorbance at 280 nm; self-association (monomer or dimer). A general note: Size exclusion chromatography separates by hydrodynamic size, large species first.

In general, stoichiometry N refers to a count of units in the complex or per binding partner. In turn, Envy registered a stoichiometry N of 2.

Values taken from PMC4754705.
